The target in data set [1] is Atlas GC ectodomain GPL binding pocket mutant R86A (Ancylostoma ceylanicum).
Data set [2] has as its target Atlas GC ectodomain fusion loop mutant F136A/F137A (Ancylostoma ceylanicum).
Data set [3] deals with the molecule itself. The experiment in a line: SEC-MALS; Superdex 200 (10/300), 293 K, 20 mM tris pH 7.8, 0.15 M NaCl, 5% glycerol, 0.5 mM TCEP; 100 ul at 1.6 to 2.5 mg/ml; self-association (trimer).

Consider 3 molecules from article PMC9094657, “A bioactive phlebovirus-like envelope protein in a hookworm endogenous virus” (Science Advances, 2022).

In general, stoichiometry N refers to the number of molecules, sites or subunits per partner or assembly.

In data set [1], “Atlas GC ectodomain GPL binding pocket mutant R86A (domain or fragment)” yielded a stoichiometry N of 3.

In turn, “Atlas GC ectodomain fusion loop mutant F136A/F137A (domain or fragment)” yielded a stoichiometry N in data set [2] of 3.

B1: Atlas GC ectodomain (soluble ectodomain fragment of the phlebovirus GC-like Env of Ancylostoma ceylanicum Atlas virus, polyprotein residues 2330 to 2772) (domain or fragment, UniProt A0A016UZK2 2330-2772, looked up)
chain: CSEVISVTSTEEVCTIQENKETCTFNHATTITLQPLQQQTCLTLNDPEKRPMGMLTVKPDGIKFRCNKKIEFFTRDHQIVSESVHRCHRAGSCHSDECHHVKDTDALPEFSSEANSRPGYTSCSSSCGCITCDGCFFCEPSCLFHRLYAIPTTPTIYSIFYCPSWELEVDAEISLQREDETTTSTIRLLPGRTSTWNNIRFSLIGTIVPQLPILSSAFVTNGRQTSIVKPAYAGQLQSNSVGQLQCPNLEAAKQFECHFSRNLCTCTNALHKVSCTCYDGSVEDHMEALPLPQTSKNFLVFEKDRNIYAKTHVGSALQLHIVAQDLKITTVKHTSHCQVEASDLSGCYSCTSGASLTLSCKSDNGEVLANMKCNEQTHVIRCTESGFINNILLMFDTSEVAADCTAACPGGIVNFTIKGLLAFVNERIISQSYSATDVERNIK
notes: The C-terminal V5 and histidine tags were optionally cleaved with carboxypeptidase A; The atomic model covers residues 2330 to 2769; also called GC trimer; WT
For B1, the “stoichiometry N” value in data set [3] is 3.
